Reference: patent US20190367620A1

Assays:
[1] = target: human FGFR1 (His-tagged FGFR1b-IIIb or FGFR1b-IIIc; isoform not told at that place) (human) (UniProt P11362); assay: ELISA on coated human FGFR1b (IIIb or IIIc not told)
[2] = target: human FGFR1 (His-tagged FGFR1b-IIIb or FGFR1b-IIIc; isoform not told at that place) (human) (UniProt P11362); assay: ELISA on coated human FGFR1b (IIIb or IIIc not told), IgG1 format
huFGFR1a-IIIc (human) = huFGFR1a-IIIc (human) (UniProt P11362); assay: SPR (Biacore 4000), antibody captured, His-tagged FGFR1 injected; no unit in the table, nM inferred from paragraph 90
huFGFR1a-IIIc (human), sequence (P11362 22-376): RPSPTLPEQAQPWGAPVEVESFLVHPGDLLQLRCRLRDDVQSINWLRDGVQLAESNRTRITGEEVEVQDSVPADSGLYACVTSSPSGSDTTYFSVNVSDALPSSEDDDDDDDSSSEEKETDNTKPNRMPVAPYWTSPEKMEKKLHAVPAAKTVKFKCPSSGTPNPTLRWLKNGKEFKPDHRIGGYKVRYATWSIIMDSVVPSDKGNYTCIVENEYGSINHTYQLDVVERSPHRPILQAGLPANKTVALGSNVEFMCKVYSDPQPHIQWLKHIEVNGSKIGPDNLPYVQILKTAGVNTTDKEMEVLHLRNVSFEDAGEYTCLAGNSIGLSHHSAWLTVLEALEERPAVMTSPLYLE

[3] = target: T1, FGFR1 D2 point mutant K95A (human), P11362; assay: SPR; free energy change relative to wild-type D2; conditions: remark: other sources report otherwise
T1 chain: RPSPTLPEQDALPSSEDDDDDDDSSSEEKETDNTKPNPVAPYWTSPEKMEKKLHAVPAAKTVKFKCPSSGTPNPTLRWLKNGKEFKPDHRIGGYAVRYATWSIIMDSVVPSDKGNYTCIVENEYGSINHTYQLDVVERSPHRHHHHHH

[4] = target: T2, FGFR1 D2 point mutant K60A (human), P11362; assay: SPR; free energy change relative to wild-type D2; conditions: remark: other sources report otherwise
T2 chain: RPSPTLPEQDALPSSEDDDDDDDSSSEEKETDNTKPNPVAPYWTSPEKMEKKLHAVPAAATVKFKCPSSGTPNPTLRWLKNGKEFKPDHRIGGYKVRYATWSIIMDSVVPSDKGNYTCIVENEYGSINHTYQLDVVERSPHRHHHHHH

[5] = target: T3, FGFR1 D2 point mutant K63A (human), P11362; assay: SPR; free energy change relative to wild-type D2; conditions: remark: other sources report otherwise
T3 chain: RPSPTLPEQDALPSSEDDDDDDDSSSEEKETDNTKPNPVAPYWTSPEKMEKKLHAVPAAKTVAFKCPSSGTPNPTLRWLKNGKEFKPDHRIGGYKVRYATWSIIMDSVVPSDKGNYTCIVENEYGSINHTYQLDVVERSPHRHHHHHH

[6] = target: T4, FGFR1 D2 point mutant T61A (human), P11362; assay: SPR; free energy change relative to wild-type D2; conditions: remark: other sources report otherwise
T4 chain: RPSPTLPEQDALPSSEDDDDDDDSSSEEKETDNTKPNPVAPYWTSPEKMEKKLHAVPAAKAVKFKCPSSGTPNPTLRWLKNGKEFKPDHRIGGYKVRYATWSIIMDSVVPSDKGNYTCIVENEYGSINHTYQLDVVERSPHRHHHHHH

[7] = target: T1, FGFR1 D2 point mutant K95A (human), …; assay: SPR as in Example 1.8; conditions: remark: other sources report otherwise
[8] = target: T2, FGFR1 D2 point mutant K60A (human), …; assay: SPR as in Example 1.8; conditions: remark: other sources report otherwise
[9] = target: T3, FGFR1 D2 point mutant K63A (human), …; assay: SPR as in Example 1.8; conditions: remark: other sources report otherwise
[10] = target: T4, FGFR1 D2 point mutant T61A (human), …; assay: SPR as in Example 1.8; conditions: remark: other sources report otherwise

B1: mAb #D01 IgG1 (antibody, V domains shown)
VH: QVQLQESGPGLVKPSGTLSLTCAVSGGSISSNNWWSWVRQPPGKGLEWIGEIYHSGSTSYNPSLKSRVTISVDKSKNQFSLKLSSVTAADTAVYYCARATDWFDHWGQGTLVTVSS
VL: SYVLTQPPSVSVAPGQTARITCGGNNIGSESVHWYQQKPGQAPVLVVYDDSDRPSGIPERFSGSNSGNTATLTISRVEAGDEADYYCQVWDSTSDHRVFGGGTKLTVLG
- EC50 [1]: 0.015 nM

B2: #A08 IgG1 (standard IgG1 built from the #A08 lead heavy and light chains) (antibody, V domains shown)
VH: EVQLQESGPGLVKPSGTLSLTCAVSGGSISSNNWWSWVRQPPGKGLEWIGEIYHSGSTSYNPSLKSRVTISVDKSKNQFSLKLSSVTAADTAVYYCARGTDWFDPWGQGTLVTVSS
VL: SYVLTQPPSVSVAPGQTARITCGGNNIGSESVHWYQQKPGQAPVLVVYDDSDRPSGIPERFSGSNSGNTATLTISRVEAGDEADYYCQVWDSTSDHRVFGGGTKLTVLG
- EC50 [2]: 8 pM

B3: mAb #A08 (antibody, V domains shown)
VH: EVQLQESGPGLVKPSGTLSLTCAVSGGSISSNNWWSWVRQPPGKGLEWIGEIYHSGSTSYNPSLKSRVTISVDKSKNQFSLKLNSVTAADTAVYYCARGTDWFDPWGQGTLVTVSS
VL: QAVLTQPPSVSVAPGQTARITCGGNNIGSESVHWYQQKPGQAPVLVVYDDSDRPSGIPERFSGSNSGNTATLTISRVEAGDEADYYCQVWDSTSDHRVFGGGTKLTVL
- Kd (huFGFR1a-IIIc (human)): 0.7 nM
- ΔΔGmut [3]: 2.02 kcal/mol
- ΔΔGmut [4]: 2.51 kcal/mol
- ΔΔGmut [5]: 2.53 kcal/mol
- ΔΔGmut [6]: 2.02 kcal/mol
- Kd [7]: 5.86 nM
- Kd [8]: 13.4 nM
- Kd [9]: 13.9 nM
- Kd [10]: 5.89 nM
